Changes are numbered by the printed parent chain. Like-named read-outs stand apart in the source and are kept apart here.
B1: 5D9: anti-FolR1 clone, generic multi-framework library (Vk3_20/VH1_46); Fab and IgG (antibody, V domains shown)
VH: QVQLVQSGAEVKKPGASVKVSCKASGYTFTSYYMHWVRQAPGQGLEWMGIINPSGGSTSYAQKFQGRVTMTRDTSTSTVYMELSSLRSEDTAVYYCARSYIDMDYWGQGTLVTVSS
VL: EIVLTQSPGTLSLSPGERATLSCRASQSVSSSYLAWYQQKPGQAPRLLIYGASSRATGIPDRFSGSGSGTDFTLTISRLEPEDFAVYYCQQDNWSPTFGQGTKVEIK
B2: 6B6: anti-FolR1 clone, generic multi-framework library (Vk3_20/VH1_46); Fab and IgG (antibody, V domains shown)
VH: B1 VH with I101V
VL: B1 VL with N93I
B3: 11F8: anti-FolR1 clone, generic multi-framework library (Vk_1_5/VH_1_69); Fab and IgG (antibody, V domains shown)
VH: QVQLVQSGAEVKKPGSSVKVSCKASGGTFSSYAISWVRQAPGQGLEWMGGIIPIFGTANYAQKFQGRVTITADKSTSTAYMELSSLRSEDTAVYYCARAVFYRAWYSFDYWGQGTTVTVSS
VL: DIQMTQSPSTLSASVGDRVTITCRASQSISSWLAWYQQKPGKAPKLLIYDASSLESGVPSRFSGSGSGTEFTLTISSLQPDDFATYYCQQYTSPPPTFGQGTKVEIK
B4: 36F2: anti-FolR1 clone, generic multi-framework library (Vk_3_20/VH_1_46); Fab and IgG (antibody, V domains shown)
VH: QVQLVQSGAEVKKPGASVKVSCKASGYTFTSYYMHWVRQAPGQGLEWMGIINPSGGSTSYAQKFQGRVTMTHDTSTSTVYMELSSLRSEDTAVYYCARSFFTGFHLDYWGQGTLVTVSS
VL: EIVLTQSPGTLSLSPGERATLSCRASQSVSSSYLAWYQQKPGQAPRLLIYGASSRATGIPDRFSGSGSGTDFTLTISRLEPEDFAVYYCQQYTNEHYYTFGQGTKVEIK

Columns and labels:
[1] = target: T1, human FolR2 (Homo sapiens, UniProt P14207); assay: SPR affinity of selected Fab clones (ProteOn XPR36); format: binding; parameters: the extracellular domain of the antigen linked to the hinge region of Fc-knob; made in house; host or cells: HEK293 EBNA; details: Fab-format, generic multi-framework sub-libraries, 25° C.
[2] = target: T2, human FolR1 (Homo sapiens, UniProt P15328); details: read-out: KD huFolR1; Fab-format, generic multi-framework sub-libraries, 25° C.
Procedure: (§1) Immobilization of antigens (ligand): Recombinant antigens were diluted with PBST (10 mM phosphate, 150 mM sodium chloride pH 7.4, 0.005% Tween 20) to […] injected at 30 μl/minute in vertical orientation. Injection of analytes: For ‘one-shot kinetics’ measurements, injection direction was changed to horizontal orientation, two-fold dilution series of purified Fab (varying concentration ranges) were injected simultaneously along separate channels 1-5, with association times of 200 s, and dissociation times of 600 s. Buffer (PBST) was injected along the sixth channel to provide an “in-line” blank for referencing. Association rate constants (kon) and dissociation rate constants (koff) were calculated using a simple one-to-one Langmuir binding model in ProteOn Manager v3.1 software by simultaneously fitting the association and dissociation sensorgrams. The equilibrium dissociation constant (KD) was calculated as the ratio koff/kon.
(§2) Immobilization of antigens (ligand): Recombinant antigens were diluted with PBST (10 mM phosphate, 150 mM sodium chloride pH 7.4, 0.005% Tween 20) to 10 μg/ml, then injected at 30 μl/minute in vertical orientation. Injection of analytes: For ‘one-shot kinetics’ measurements, injection direction was changed to horizontal orientation, two-fold dilution series of purified Fab (varying concentration ranges) were injected simultaneously along separate channels 1-5, with association times of 150 or 200 s, and dissociation times of 200 or 600 s, respectively. Buffer (PBST) was injected along the sixth channel to provide an “in-line” blank for referencing. Association rate constants (kon) and dissociation rate constants (koff) were calculated using a simple one-to-one Langmuir binding model in ProteOn Manager v3.1 software by simultaneously fitting the association and dissociation sensorgrams. The equilibrium dissociation constant (KD) was calculated as the ratio koff/kon.

[3] = target: cynomolgus FolR1; details: read-out: KD cyFolR1; Fab-format, generic multi-framework sub-libraries, 25° C.
Procedure: as §1, §2

[4] = target: murine FolR1 (Mus musculus, UniProt P35846, C103A); details: Fab-format, generic multi-framework sub-libraries, 25° C.
Procedure: as §1, §2

[5] = target: T3, human FolR3 (Homo sapiens, UniProt P41439); assay: SPR affinity of selected Fab clones (ProteOn XPR36); format: binding; parameters: the extracellular domain of the antigen linked to the hinge region of Fc-knob; made in house; host or cells: HEK293 EBNA; details: Fab-format, generic multi-framework sub-libraries, 25° C.
[6] = target: T2, human FolR1; details: IgG injected for 60 seconds at 500 nM
Procedure: (§3) Binding of FolR1 binders as IgG or in the T-cell bispecific format to different recombinant folate receptors (human FolR1, 2 and 3, murine FolR1 and cynomolgus FolR1; all as Fc fusions) was assessed by surface plasmon resonance (SPR). All SPR experiments were performed on a Biacore T200 at 25° C. with HBS-EP as running buffer (0.01 M HEPES pH 7.4, 0.15 M NaCl, 3 mM EDTA, 0.005% Surfactant P20, Biacore, Freiburg/Germany).
(§4) First the anti-FolR1 IgGs were analyzed by single injections (Table 1) to characterize their crossreactivity (to human, murine and cyno FolR1) and specificity (to human FolR1, human FolR2, human FolR3). Recombinant biotinylated monomeric Fc fusions of human, cynomolgus and murine Folate Receptor 1 (FolR1-Fc) or human Folate Receptor 2 and 3 (FolR2-Fc, FolR3-Fc) were directly coupled on a SA chip using the standard coupling instruction (Biacore, Freiburg/Germany). The immobilization level was about 300-400 RU. The IgGs were injected for 60 seconds at a concentration of 500 nM.

[7] = target: T1, human FolR2; details: IgG injected for 60 seconds at 500 nM
Procedure: as §3, §4

[8] = target: murine FolR1 (Mus musculus, UniProt P35846); details: IgG injected for 60 seconds at 500 nM
Procedure: as §3, §4

[9] = system: cynomolgus FolR1; details: IgG injected for 60 seconds at 500 nM
Procedure: as §3, §4

[10] = target: T3, human FolR3; details: IgG injected for 60 seconds at 500 nM
Procedure: as §3, §4

[11] = target: murine Folate Receptor 1 (FolR1-Fc) (Mus musculus, UniProt P35846); details: bivalent binding (avidity), ligand muFolR1; 19H3 IgG with folate 2.3 μM in running buffer
Procedure: as §3
(§5) The avidity of the interaction between the anti-FolR1 IgGs or T cell bispecifics and the recombinant folate receptors was determined as described below (Table 9). Recombinant biotinylated monomeric Fc fusions of human, cynomolgus and murine Folate Receptor 1 (FolR1-Fc) were directly coupled on a SA chip using the standard coupling instruction (Biacore, Freiburg/Germany). The immobilization level was about 300-400 RU. The anti-FolR1 IgGs or T cell bispecifics were passed at a concentration range from 2.1 to 500 nM with a flow of 30 μL/minutes through the flow cells over 180 seconds. The dissociation was monitored for 600 seconds. […] The binding curves resulting from the bivalent binding of the IgGs or T cell bispecifics were approximated to a 1:1 Langmuir binding and fitted with that model (which is not correct, but gives an idea of the avidity). The apparent avidity constants for the interactions were derived from the rate constants of the fitting using the Bia Evaluation software (GE Healthcare).

[12] = system: cynomolgus Folate Receptor 1 (FolR1-Fc); details: bivalent binding (avidity), ligand cyFolR1
Procedure: as §3, §5

[13] = system: HEK cells transiently transfected with human FolR1 or human FolR2; assay: Flow cytometry specificity on transfected HEK cells; format: binding; details: IgG
Procedure: FIGS. 3A-B depict graphs summarizing specificity of FolR1 binders for FolR1. Binding of FolR1 IgGs to HEK cells transiently transfected with either FolR1 or FolR2 was analyzed by flow cytometry to identify clones which bind specifically to FolR1 and not to FolR2.
(§6) New FolR1 hinders were generated via Phage Display using either a Fab library or a common light chain library using the CD3 light chain. The identified binders were converted into a human IgG1 format and binding to FolR1 high expressing HeLa cells was addressed. As reference molecule the human FolR1 binder Mov19 was included. […] In a next step the selected clones were tested for specificity to human FolR1 by excluding binding to the closely related human FolR2. HEK cells were transiently transfected with either human FolR1 or human FolR2 to address specificity. […] Therefore these clones were excluded from further characterization. In parallel cross-reactivity of the FolR1 clones to cyno FolR1 was addressed by performing binding studies to HEK cells transiently transfected with cyno FolR1. […] Subsequently three human FolR1 specific cyno cross-reactive binders were converted into TCB format and tested for induction of T cell killing and T cell activation. […] As reference molecule Mov19 FolR1 TCB was included in all studies. These FoLR1 TCBs were then used to compare induction of internalization after binding to FolR1 on HeLa cells.

[14] = target: T4, human Folate Receptor 1 (FolR1-Fc) (Homo sapiens, UniProt P15328); assay: SPR avidity to Folate Receptor 1 (bivalent binding)
T4 construct: the extracellular domain of the antigen linked to the hinge region of Fc-knob; made in house; host or cells: HEK293 EBNA
Text: The immobilization level was about 300-400 RU. […] The dissociation was monitored for 600 seconds.

[15] = system: HEK cells transiently transfected with cyno FolR1; assay: Flow cytometry cross-reactivity on transfected HEK cells; format: binding, cynomolgus; details: IgG
Text: FIGS. 4A-B depict graphs summarizing cross-reactivity of FolR1 binders to cyFoLR1. Cross-reactivity of the FolR1 antibodies to cyno FolR1 was addressed on HEK cells transiently transfected with cyFolR1 by flow cytometry.
as §6

[16] = system: huFolR1-Fc; assay: SPR epitope binning; format: binding, human
Procedure: 500 nM huFolR1-Fc was then captured for 60 s, followed by 500 nM of the different binders for 30 s. The surface was regenerated with two injections of 10 mM glycine pH 2 for 30 s each.

[17] = bivalent binding (avidity), ligand huFolR1

Molecule | KD huFolR2 [1] | Kd [2] | Kd [3] | KD muFolR1 [4] | KD huFolR3 [5] | Binding to huFolR1 [6] | Binding to huFolR2 [7] | Binding to muFolR1 [8] | Binding to cyFolR1 [9] | Binding to huFolR3 [10] | further results
B1 | no binding | 8.6 nM | 5.9 nM | no binding | no binding | + | + | − | + | + | 
B2 | no binding | 14.5 nM | 9.4 nM | no binding | no binding | + | + | − | + | + | 
B3 | no binding | 632 nM | 794 nM |  | no binding | + | + | + | + | + | 
B4 | no binding |  |  |  | no binding | + | − | + | + | − | ka [11]: 370000 M⁻¹ s⁻¹; kd [11]: 0.000603 s⁻¹; ka [12]: 3.02e+06 M⁻¹ s⁻¹; kd [12]: 0.016 s⁻¹; specificity for human FolR1 versus human FolR2 on transfected HEK cells [13]: specifically to human FolR1 and not to human FolR2; dissociation from huFolR1 (in words) [14]: dissociated rapidly from huFolR1; ka [14, 17]: 2.62e+06 M⁻¹ s⁻¹; kd [14, 17]: 0.0151 s⁻¹; binding to cyno FolR1 on transfected HEK cells [15]: bind comparably well human and cyno FoLR1; epitope characterization on human FolR1 (in words) [16]: binds to a different epitope than Mov19 and Farletuzumab; epitope characterization on human FolR1 (in words) ([16]; listed as 36F2 IgG): Measure not possible, huFolR1 dissociates too rapidly

— patent publication US10781262B2, “Combination therapy of T cell activating bispecific antigen binding molecules and PD-1 axis binding antagonists” (Hoffmann-La Roche Inc., priority 2014, dated 2020)
